Changes are numbered by the printed parent chain. Names and notes keep the numbering of the source.
Legend:
[1] = Example 10: derhamnosylation of saponins in crude bark extract (50%) using WT and engineered rhamnosidases R1 to R5; type: biochemical, Quillaja saponaria; conditions: 7 h, 50% CBE, 35 degC; for % Right Peak: starting CBE 26; for % Left Peak: starting CBE 30; for % Middle Peak: starting CBE 44
[2] = Example 9: screening of rhamnosidase variants for derhamnosylation of saponins in crude bark extract; type: biochemical, Quillaja saponaria; conditions: for Cumulative FIOP from WT: estimate
Method in brief: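 His-tagged Kribbella flavida rhamnosidase variants expressed in colonies; cell lysates added at the indicated % loading (1% = 2 ul lysate per 200 ul reaction) to pH 6 Quillaja saponaria aqueous bark extract (≥2.80 mg/ml QS-21) at 75% or 80% volume. Quenched with acidified MeCN, analysed by UV HPLC; activity as % conversion of the QS-17-family Left Peak.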

[3] = rhamnosidase 0.31 mg/ml + glucosidase G5 0.5 mg/ml
[4] = rhamnosidase 0.31 mg/ml, no glucosidase
[5] = R4 round: 35 deg C, 18 h, lysate 0.125% v/v, CBE 75% v/v, 100 mM Sodium acetate pH 5.8
[6] = rhamnosidase 2.5 mg/ml + glucosidase G5 0.5 mg/ml
[7] = rhamnosidase 2.5 mg/ml, no glucosidase
[8] = R1 round: 20 deg C, 22 h, lysate 1.25% v/v, CBE 80% v/v, 100 mM Potassium phosphate pH 6

B1: Variant R4: engineered rhamnosidase polypeptide, variant of Kribbella flavida rhamnosidase SEQ ID No. 1017 (protein)
chain: MSFPAAPARLRFEHRTDPGPVLGIGTATPRLSWQVPTAPDDYRQAGYEVEIARGDAAPEQYTVDSADQVLVPWPGTPLAARESATVRVRVRGDGDWSQWSDPATVEAGLLSADDWTARFVSPRENAGHEAPAPLIGGVIDLPPDIAQARLYATAHGIYEPTLNGTRVGDEQLAPGWTAYEQRLRYQTYDVTDLVAPGENRLELLVGNGWYRGRMSFHNGHSLYGDRLAVLAQLEVTTATGEVKVLASDGTWTTRETNVLADDLYDGQHVDLRRTLGEPGPVDVLDADLSLLVAPDGPPVRVTDVLPAKAVTTSPAGKTLVDFGQNVVGRLRLRVRGGAAGDEIVLRHAEVLEDGELCVRPLRTAKATDSFVLAGPDEVTLEPTLTFHGFRYAEITGVPDLRAEDVEAVVVGSDLRRTGWFESSHPLLDRFHENVVWGMRGNFLDVPTDCPQRDERLGWTGDIQVFSPTASFLFDTAGFLTNWLADLIAEQHKDGSVPFVVPDVLRQPSPATAAWGDAATIVPWVLYERTGDAGLLARQLPSMRAWVDRMAGLAGDDLLWVGGFQFGDWLDPTAPPDDPFRAKADPDVLATAHLARSAEVVALAAEVVGAGELAREYAELAARVRQAFAAEYTTASGRVLSDAATNYALALQWALLPTEAQRKRAGERLADLVRTAGFRISTGFVGTPLMADALADSGHPDLAYRLLLETGCPSWLYAVTMDATTVWERWDSMLPDGSINPGQMTSFNHYALGAVADWMHRRVAGLAPGDPGYRRIVVDPLFTAHLTKASARHLTPYGEAAVAWSRSGGRVRLEVTVPVGARARVAVPGESAPVEVGHGTHEWTADDVYGETPPLPADATIRQLIDHEPSWTTLAAAATRTGIVADDAELAGRLERYLDHPATELVDAVSPRGFSPSAEALHAELDSVLGR
modifications: Seq ID No. 1017 with mutations A143P, L214M, G215S, G218N, K219G, G357C, G508S, G634A, Q921H
% change in Left Peak [1, 3]: −42% | % change in Middle Peak [1, 3]: −93% | % change in Right Peak [1, 3]: 306% | Cumulative Fold improvement in primary enzyme loading × time [1, 3]: 16 | Fold improvement in primary enzyme loading × time [1, 3]: 2.0 | % Right Peak [1, 3]: 79% | % Left Peak [1, 3]: 17% | % Middle Peak [1, 3]: 3% | % change in Left Peak [1, 4]: −45% | % change in Middle Peak [1, 4]: 22% | % change in Right Peak [1, 4]: 115% | Cumulative Fold improvement in primary enzyme loading × time [1, 4]: 16 | Fold improvement in primary enzyme loading × time [1, 4]: 2.0 | % Right Peak [1, 4]: 30% | % Left Peak [1, 4]: 16% | % Middle Peak [1, 4]: 54% | % conversion (Right peak/Left Peak) (−neg control) [2, 5]: 5.06% | Cumulative FIOP from WT [2, 5]: 22.1 | Right Peak % ([2]; R4 round: 35 deg C, 18 h, lysate 0.125% v/v, CBE 75% v/v, 100 mM Sodium acetate pH 5.8, negative control 26.09): 27.00% | Left Peak % ([2]; R4 round: 35 deg C, 18 h, lysate 0.125% v/v, CBE 75% v/v, 100 mM Sodium acetate pH 5.8, negative control 29.62): 25.03% | Middle Peak % ([2]; R4 round: 35 deg C, 18 h, lysate 0.125% v/v, CBE 75% v/v, 100 mM Sodium acetate pH 5.8, negative control 44.29): 47.96% | % conversion (Right peak/Left Peak) ([2]; R4 round: 35 deg C, 18 h, lysate 0.125% v/v, CBE 75% v/v, 100 mM Sodium acetate pH 5.8, negative control 46.84): 51.89% | FIOP (% area increase variant/pos control) ([2]; R4 round: 35 deg C, 18 h, lysate 0.125% v/v, CBE 75% v/v, 100 mM Sodium acetate pH 5.8, positive control R3): 2.3 | % conversion (Right peak/Left Peak) (−neg control) ([2]; R5 round: 35 deg C, 18 h, lysate 0.0625% v/v, CBE 75% v/v, 100 mM Sodium acetate pH 5.8): 2.02% | Right Peak % ([2]; R5 round: 35 deg C, 18 h, lysate 0.0625% v/v, CBE 75% v/v, 100 mM Sodium acetate pH 5.8, negative control 26.23): 26.79% | Left Peak % ([2]; R5 round: 35 deg C, 18 h, lysate 0.0625% v/v, CBE 75% v/v, 100 mM Sodium acetate pH 5.8, negative control 28.76): 27.09% | Middle Peak % ([2]; R5 round: 35 deg C, 18 h, lysate 0.0625% v/v, CBE 75% v/v, 100 mM Sodium acetate pH 5.8, negative control 45.00): 46.12% | % conversion (Right peak/Left Peak) ([2]; R5 round: 35 deg C, 18 h, lysate 0.0625% v/v, CBE 75% v/v, 100 mM Sodium acetate pH 5.8, negative control 47.70): 49.72%

B2: Variant R1: engineered rhamnosidase polypeptide, variant of Kribbella flavida rhamnosidase SEQ ID No. 1017 (protein)
chain: B1 chain with P143A, M214L, S215G, N218G, C357G, S508G, A634G, H921Q
modifications: Seq ID No. 1017 with mutation K219G
% change in Left Peak [1, 6]: −40% | % change in Middle Peak [1, 6]: −96% | % change in Right Peak [1, 6]: 309% | Cumulative Fold improvement in primary enzyme loading × time [1, 6]: 2 | Fold improvement in primary enzyme loading × time [1, 6]: 2.0 | % Right Peak [1, 6]: 80% | % Left Peak [1, 6]: 18% | % Middle Peak [1, 6]: 2% | % change in Left Peak [1, 7]: −35% | % change in Middle Peak [1, 7]: 17% | % change in Right Peak [1, 7]: 112% | Cumulative Fold improvement in primary enzyme loading × time [1, 7]: 2 | Fold improvement in primary enzyme loading × time [1, 7]: 2.0 | % Right Peak [1, 7]: 29% | % Left Peak [1, 7]: 19% | % Middle Peak [1, 7]: 51% | % conversion (Right peak/Left Peak) (−neg control) [2, 8]: 2.74% | Cumulative FIOP from WT [2, 8]: 1.7 | Right Peak % ([2]; R1 round: 20 deg C, 22 h, lysate 1.25% v/v, CBE 80% v/v, 100 mM Potassium phosphate pH 6, negative control 26.35): 27.08% | Left Peak % ([2]; R1 round: 20 deg C, 22 h, lysate 1.25% v/v, CBE 80% v/v, 100 mM Potassium phosphate pH 6, negative control 29.36): 27.04% | Middle Peak % ([2]; R1 round: 20 deg C, 22 h, lysate 1.25% v/v, CBE 80% v/v, 100 mM Potassium phosphate pH 6, negative control 44.30): 45.89% | % conversion (Right peak/Left Peak) ([2]; R1 round: 20 deg C, 22 h, lysate 1.25% v/v, CBE 80% v/v, 100 mM Potassium phosphate pH 6, negative control 47.30): 50.04% | FIOP (% area increase variant/pos control) ([2]; R1 round: 20 deg C, 22 h, lysate 1.25% v/v, CBE 80% v/v, 100 mM Potassium phosphate pH 6, positive control WT): 1.7
